1 variant from IntAct's records for PubMed 18337722 can be followed below.

Sequences and labels used below:
B1: Ataxin-1 (Homo sapiens), P54253 (parent)
chain: MKSNQERSNECLPPKKREIPATSRSSEEKAPTLPSDNHRVEGTAWLPGNPGGRGHGGGRHGPAGTSVELGLQQGIGLHKALSTGLDYSPPSAPRSVPVATTLPAAYATPQPGTPVSPVQYAHLPHTFQFIGSSQYSGTYASFIPSQLIPPTANPVTSAVASAAGATTPSQRSQLEAYSTLLANMGSLSQTPGHKAEQQQQQQQQQQQQHQHQQQQQQQQQQQQQQHLSRAPGLITPGSPPPAQQNQYVHISSSPQNTGRTASPPAIPVHLHPHQTMIPHTLTLGPPSQVVMQYADSGSHFVPREATKKAESSRLQQAIQAKEVLNGEMEKSRRYGAPSSADLGLGKAGGKSVPHPYESRHVVVHPSPSDYSSRDPSGVRASVMVLPNSNTPAADLEVQQATHREASPSTLNDKSGLHLGKPGHRSYALSPHTVIQTTHSASEPLPVGLPATAFYAGTQPPVIGYLSGQQQAITYAGSLPQHLVIPGTQPLLIPVGSTDMEASGAAPAIVTSSPQFAAVPHTFVTTALPKSENFNPEALVTQAAYPAMVQAQIHLPVVQSVASPAAAPPTLPPYFMKGSIIQLANGELKKVEDLKTEDFIQSAEISNDLKIDSSTVERIEDSHSPGVAVIQFAVGEHRAQVSVEVLVEYPFFVFGQGWSSCCPERTSQLFDLPCSKLSVGDVCISLTLKNLKNGSVKKGQPVDPASVLLKHSKADGLAGSRHRYAEQENGINQGSAQMLSENGELKFPEKMGLPAAPFLTKIEPSKPAATRKRRWSAPESRKLEKSEDEPPLTLPKPSLIPQEVKICIEGRSNVGK
partner: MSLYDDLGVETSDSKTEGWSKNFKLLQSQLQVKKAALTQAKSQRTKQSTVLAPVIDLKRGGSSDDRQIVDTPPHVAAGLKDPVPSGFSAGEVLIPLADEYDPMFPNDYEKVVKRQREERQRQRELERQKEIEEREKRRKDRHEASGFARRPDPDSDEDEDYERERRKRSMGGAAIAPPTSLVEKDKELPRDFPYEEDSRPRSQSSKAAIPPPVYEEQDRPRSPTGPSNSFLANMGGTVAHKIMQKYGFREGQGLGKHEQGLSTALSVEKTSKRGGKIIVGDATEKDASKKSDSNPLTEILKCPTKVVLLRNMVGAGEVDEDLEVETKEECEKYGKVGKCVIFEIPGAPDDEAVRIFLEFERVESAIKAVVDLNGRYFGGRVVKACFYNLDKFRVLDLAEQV

In this experiment the parent is B1. The note with it: with spf45_human RBM17, Q96I25.
Consider S775A, for which the “effect of a mutation on the interaction” value is “disrupting interaction strength”.
